Reference: PMC3193277

Biological target: 6xHis-p53 (UniProt P04637 1-393)
Experiment: EMSA

Sequence of 6xHis-p53 (P04637 whole entry): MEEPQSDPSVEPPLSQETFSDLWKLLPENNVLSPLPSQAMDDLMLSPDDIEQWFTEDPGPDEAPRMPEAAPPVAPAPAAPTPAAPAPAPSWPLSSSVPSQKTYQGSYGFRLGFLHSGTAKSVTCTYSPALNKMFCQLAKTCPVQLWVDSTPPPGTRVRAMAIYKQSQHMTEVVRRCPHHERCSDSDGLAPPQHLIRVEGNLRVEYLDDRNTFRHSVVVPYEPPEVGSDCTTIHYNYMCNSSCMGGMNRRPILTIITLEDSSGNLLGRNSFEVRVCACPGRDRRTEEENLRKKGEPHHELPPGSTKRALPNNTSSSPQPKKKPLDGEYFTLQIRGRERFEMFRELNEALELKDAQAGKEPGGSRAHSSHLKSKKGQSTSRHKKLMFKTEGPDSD

B1: GADD45 probe (intron 3 p53RE) (dsDNA)
DNA 1: GTAGCTGATATCGAATTCTCGAGCAGAACATGTCTAAGCATGCTGGGCTCGAGAATTCCTGCAGCC
DNA 2: GGCTGCAGGAATTCTCGAGCCCAGCATGCTTAGACATGTTCTGCTCGAGAATTCGATATCAGCTAC
  binding result: binds
